Experiments:
herpes virus = assay type: cell-based; details: for % cell death after 72 h TCID50 herpes virus infection: protease 0.5 μg/ml, Vero cells, serum free medium, virus control 56.0 ± 2.3
influenza virus = assay type: cell-based; details: for % cell death after 72 h TCID50 influenza virus infection: protease 0.5 μg/ml, MDCK cells, serum free medium, virus control 48.21 ± 6.77

Molecule | % increase in herpes virus growth compared to controls (herpes virus) | % cell death after 72 h TCID50 herpes virus infection (herpes virus) [%] | % increase in influenza viral growth compared to virus control (influenza virus) | % cell death after 72 h TCID50 influenza virus infection (influenza virus) [%]
MMP-12: purified human MMP-12 (elastase), AnaSpec (protein, UniProt P39900 106-470, looked up) Macrophage metalloelastase: GPVWRKHYITYRINNYTPDMNREDVDYAIRKAFQVWSNVTPLKFSKINTGMADILVVFARGAHGDFHAFDGKGGILAHAFGPGSGIGGDAHFDEDEFWTTHSGGTNLFLTAVHEIGHSLGLGHSSDPKAVMFPTYKYVDINTFRLSADDIRGIQSLYGDPKENQRLPNPDNSEPALCDPNLSFDAVTTVGNKIFFFKDRFFWLKVSERPKTSVNLISSLWPTLPSGIEAAYEIEARNQVFLFKDDKYWLISNLRPEPNYPKSIHSFGFPNFVKKIDAAVFNPRFYRTYFFVDNQYWRYDERRQMMDPGYPKLITKNFQGIGPKIDAVFYSKNKYYYFFQGSNQFEYDFLLQRITKTLKSNSWFGC | +19.86% | 67.12 ± 5.91 | +1.41% | 48.89 ± 4.39
MMP-2: purified human MMP 2 (gelatinase A), AnaSpec (protein, UniProt P08253 110-660, looked up) 72 kDa type IV collagenase: YNFFPRKPKWDKNQITYRIIGYTPDLDPETVDDAFARAFQVWSDVTPLRFSRIHDGEADIMINFGRWEHGDGYPFDGKDGLLAHAFAPGTGVGGDSHFDDDELWTLGEGQVVRVKYGNADGEYCKFPFLFNGKEYNSCTDTGRSDGFLWCSTTYNFEKDGKYGFCPHEALFTMGGNAEGQPCKFPFRFQGTSYDSCTTEGRTDGYRWCGTTEDYDRDKKYGFCPETAMSTVGGNSEGAPCVFPFTFLGNKYESCTSAGRSDGKMWCATTANYDDDRKWGFCPDQGYSLFLVAAHEFGHAMGLEHSQDPGALMAPIYTYTKNFRLSQDDIKGIQELYGASPDIDLGTGPTPTLGPVTPEICKQDIVFDGIAQIRGEIFFFKDRFIWRTVTPRDKPMGPLLVATFWPELPEKIDAVYEAPQEEKAVFFAGNEYWIYSASTLERGYPKPLTSLGLPPDVQRVDAAFNWSKNKKTYIFAGDKFWRYNEVKKKMDPGFPKLIADAWNAIPDNLDAVVDLQGGGHSYFFKGAYYLKLENQSLKSVKFGSIKSDWLGC | +31.43% | 73.6 ± 6.20 | +49.14% | 71.90 ± 8.21
